Here are results for 83 variants from the RNAGym collection of RNA variant scans (doi:10.1021/acssynbio.7b00057).

Sequences and labels used below:
B1: Pistol ribozyme (parent)
chain: GGGUCGUUGUUCCAUAAUCGCGUGGAUAUGGCACGCAAGUUUCUACCGGGCACCGUAAAUGUCCGACUGGAGCCGUUCGGGCGGCUAUAAACAGACCUCAGGCCCGAAGCGUGGCGGCACCUGCCGCCGGUGGUAAAAAAGAUCGGAAGAGCACACGUCU

The variants in the series derive from B1. Nature of the series: aptazyme ON/OFF ratio, guanine; higher = stronger switching; co-transcriptional cleavage with and without guanine.
For the variant U7C U8G U10A U11A C12U C13A, the “aptazyme ON/OFF ratio” value came to 1.16. The result for U7C U8G U10A U11A C12U C13U reads 1.16; that for U7C U8G U10A U11A C12U C13G, 1.12. As for U7C U8G G9U U10C U11A C13A, the “aptazyme ON/OFF ratio” value stood at 1.24. Turning to U7C U8G G9U U10C U11A C13G, the “aptazyme ON/OFF ratio” value was 1.24.

Turning to U7C U8G G9U U10C U11A C13U, the “aptazyme ON/OFF ratio” value is 1.35. The result for U7C U8G G9U U10G U11C C12G C13A reads 1.03. For U7C U8G G9U U10G U11C C12G C13U the value was 1.08; for U7C U8G G9U U10G U11C C12G C13G, 1.07; for U7C U8G G9U U11C C12G C13A, 1.26. The result for U7C U8G G9U U11C C12G C13U reads 1.35; that for U7C U8G G9U U11C C12G C13G, 1.17; that for U7C U8G G9U U10C U11G C13U, 1.19.

Consider U7C U8G G9U U10C U11G C13A, for which the “aptazyme ON/OFF ratio” value came out at 1.19. For U7C U8G G9U U10C U11G C13G the value was 1.03; for U7C U8G U10C U11C C12A, 1.48; for U7C U8G U10C U11C C12G, 1.41. For U7C U8G U10A C12U C13U the value was 1.33.

Turning to U7C U8G U10A C12U C13G, the “aptazyme ON/OFF ratio” value worked out at 1.13. For U7C U8G U10A C12U C13A the value was 1.13; for U7C U8G G9U U10A U11C C12A C13G, 1.16; for U7C U8G G9U U10A U11C C12A C13U, 1.13. The result for U7C U8G G9U U10A U11C C12A C13A reads 1.16. For U7C U8G G9U U10A C12U the value was 1.15; for U7C U8G G9U U10C U11C C12A C13G, 1.19. As for U7C U8G G9U U10C U11C C12A C13A, the “aptazyme ON/OFF ratio” value came out at 1.06.

For U7C U8G G9U U10C U11C C12A C13U, the “aptazyme ON/OFF ratio” value came out at 1.18. For U7C U8G G9U U10A U11G C12U C13G the value was 1.14; for U7C U8G G9U U10A U11G C12U C13U, 1.14; for U7C U8G G9U U10A U11G C12U C13A, 1.11.

As to U7C U8G U10C C12G C13U, the “aptazyme ON/OFF ratio” value stood at 1.35. For U7C U8G U10C C12G C13G the value was 1.13. The result for U7C U8G U10C C12G C13A reads 1.11. For U7C U8G G9U U10A U11G C12U the value was 1.19; for U7C U8G G9U U10A U11G C12G, 1.23. As for U7C U8G G9U U10A U11G C12A, the “aptazyme ON/OFF ratio” value is 1.11. The result for U7C U8G G9U U10G U11A C12U C13G reads 1.17; that for U7C U8G G9U U10G U11A C12U C13A, 1.24.

Regarding U7C U8G G9U U10G U11A C12U C13U, the “aptazyme ON/OFF ratio” value was 1.26. For U7C U8G U10A C12A C13G, the “aptazyme ON/OFF ratio” value worked out at 1.08. The result for U7C U8G U10A C12A C13U reads 1.23; that for U7C U8G U10A C12A C13A, 1.16. As to U7C U8G U10A U11C C12A C13A, the “aptazyme ON/OFF ratio” value was 1.14. The result for U7C U8G U10A U11C C12A C13G reads 1.05; that for U7C U8G U10A U11C C12A C13U, 1.15. The result for U7C U8G U10A U11A C13G reads 1.13; that for U7C U8G U10A U11A C13U, 1.29. Regarding U7C U8G U10A U11A C13A, the “aptazyme ON/OFF ratio” value was found to be 1.12.

For the variant U7C U8G G9U U10G U11G C13U, the “aptazyme ON/OFF ratio” value was 1.21.

U7C U8G G9U U10G U11G C13A: the “aptazyme ON/OFF ratio” value is 1.23. The result for U7C U8G G9U U10G U11G C13G reads 1.06. Turning to U7C U8G G9U U10G U11G C12A, the “aptazyme ON/OFF ratio” value came out at 1.22.

For the variant U7C U8G G9U U10G U11G C12U, the “aptazyme ON/OFF ratio” value stood at 1.28.

For U7C U8G G9U U10G U11G C12G, the “aptazyme ON/OFF ratio” value stood at 1.22.

Take U7C U8G G9U U10G U11A C12A C13A: the “aptazyme ON/OFF ratio” value was 1.18. The result for U7C U8G G9U U10G U11A C12A C13G reads 1.17; that for U7C U8G G9U U10G U11A C12A C13U, 1.26; that for U7C U8G G9U U10A U11G C12G C13U, 1.19.

Take U7C U8G G9U U10A U11G C12G C13G: the “aptazyme ON/OFF ratio” value was 1.18. The result for U7C U8G G9U U10A U11G C12G C13A reads 1.05; that for U7C U8G G9U U10A U11C C12U C13G, 1.11.

Take U7C U8G G9U U10A U11C C12U C13U: the “aptazyme ON/OFF ratio” value is 1.06.

In the case of U7C U8G G9U U10A U11C C12U C13A, the “aptazyme ON/OFF ratio” value worked out at 1.09. The result for U7C U8G G9U U10A U11A C12G C13U reads 1.2. Take U7C U8G G9U U10A U11A C12G C13A: the “aptazyme ON/OFF ratio” value was found to be 1.18. The result for U7C U8G G9U U10A U11A C12G C13G reads 1.28. Turning to U7C U8G U10C C12G, the “aptazyme ON/OFF ratio” value came out at 2.01. For U7C U8G U10C C12A the value was 2.01. The result for U7C U8G U10C C12U reads 1.38; that for U7C U8G G9U U10A U11C C12G, 1.2.

For the variant U7C U8G G9U U10A U11C C12A, the “aptazyme ON/OFF ratio” value is 1.14. Take U7C U8G G9U U10A U11C C12U: the “aptazyme ON/OFF ratio” value was found to be 1.04.

Take U7C U8G G9U U11A C13A: the “aptazyme ON/OFF ratio” value was determined as 1.28.

Regarding U7C U8G G9U U11A C13U, the “aptazyme ON/OFF ratio” value amounted to 1.28. The result for U7C U8G G9U U11A C13G reads 1.09; that for U7C U8G U10C C12A C13G, 1.1. For U7C U8G U10C C12A C13A the value was 1.28; for U7C U8G U10C C12A C13U, 1.67. For U7C U8G G9U U10G C12A the value was 1.15; for U7C U8G G9U U10G C12G, 1.08. With U7C U8G G9U U10G C12U, the “aptazyme ON/OFF ratio” value stood at 1.12. Take U7C U8G G9U U10G U11A C13G: the “aptazyme ON/OFF ratio” value was 1.08. Consider U7C U8G G9U U10G U11A C13U, for which the “aptazyme ON/OFF ratio” value turned out to be 1.12.
